# Experimental data from the RNAGym collection of RNA variant scans (doi:10.1093/molbev/msab373).
# B1: Azoarcus group I ribozyme (parent)
# chain: GUGCCUUGCGCCGGGAAACCACGCAAGGGAUGGUGUCAAAUUCGGCGAAACCUAAGCGCCCGCCCGGGCGUAUGGCAACGCCGAGCCAAGCUUCGGCGCCUGCGCCGAUGAAGGUGUAGAGACUAGACGGCACCCACCUAAGGCAAACGCUAUGGUGAAGGCAUAGUCCAGGGAGUGGCGAAAGUCACACAAACCGG
# Variants of: B1
# Experiment: reverse-splicing fitness (ratio to wild type); higher = more active; in vitro selection; Mg2+ level not given
# Method in brief: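 An in vitro group I ribozyme library with randomized positions was T7-transcribed and gel-purified. In triplicate, 10 pmol RNA in EPPS pH 7.5 was reacted with 50 pmoles of a 30-nt RNA substrate for 1 h at 37 °C across several added MgCl2 levels (1–48 mM), then stopped with EDTA. Products were reverse transcribed from a substrate-complementary primer, PCR-amplified and sequenced (HiSeq 4000). Fitness is a variant's read proportion after selection over that before, normalised to wild type.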
row,Variant,reverse-splicing fitness
1,C82G A111U A120U A145U C150A,0.00721
2,C82G A111U A120U A145U C150U,0.0274
3,C82G A111U A120U A145U C150G,0.00782
4,C82G A111U A120U C150U U176G,0.00391
5,C82G A111U A120U C150U U176A,0.00931
6,C82G A111U A120U C150U U176C,0.0123
7,C82G A111U A120U A145G C150U C169G U176A,0.00833
8,C82G A111U A120U A145G C150U C169G U176G,0.00266
9,C82G A111U A120U A145G C150U C169G U176C,0.00575
10,C82G A111U A120U A145G C150G C169U,0.00767
11,C82G A111U A145C C169G,0.00826
12,C82G A111U A145C C169U,0.0121
13,C82G A111U A145C C169A,0.00732
14,C82G A111U A145G C150U C169U U176A,0.0152
15,C82G A111U A145G C150U C169U U176C,0.0146
16,C82G A111U A145G C150U C169U U176G,0.00638
17,C82G A111U A120U A145G C150U C169U,0.00655
18,C82G A111U A120U A145G C150U C169G,0.00641
19,C82G A111U A120U A145G C150U C169A,0.00699
20,C82G A111U A120U A145G C150G C169U U176A,0.0076
21,C82G A111U A120U A145G C150G C169U U176G,0.00391

row,Variant,reverse-splicing fitness
1,C82G A111U A120U A145G C150G C169U U176C,0.00721
2,C82G A111U A145C C150U C169G U176A,0.022
3,C82G A111U A145C C150U C169G U176C,0.0132
4,C82G A111U A145C C150U C169G U176G,0.00635
5,C82G A111U A120U C150U C169G U176C,0.00433
6,C82G A111U A120U C150U C169G U176G,0.00236
7,C82G A111U A120U C150U C169G U176A,0.00881
8,C82G A111U A145U C150G C169U,0.00956
9,C82G A111U A145U C150G C169G,0.00766
10,C82G A111U A145U C150G C169A,0.00951
11,C82G A111U A145U C150G C169A U176A,0.0117
12,C82G A111U A145U C150G C169A U176C,0.0124
13,C82G A111U A145U C150G C169A U176G,0.00706
14,C82G A111U A120U A145U C150A C169U,0.00264
15,C82G A111U A120U A145U C150A C169G,0.00289
16,C82G A111U A120U A145U C150A C169A,0.00224
17,C82G A111U A120U C150U C169U U176C,0.00402
18,C82G A111U A120U C150U C169U U176G,0.00215
19,C82G A111U A120U C150U C169U U176A,0.0052
20,C82G A111U A120U A145G C169G U176A,0.00533
21,C82G A111U A120U A145G C169G U176C,0.00515

row,Variant,reverse-splicing fitness
1,C82G A111U A120U A145G C169G U176G,0.00172
2,C82G A111U A120U A145U C150G U176C,0.006
3,C82G A111U A120U A145U C150G U176A,0.00373
4,C82G A111U A120U A145U C150G U176G,0.00246
5,C82G A111U A145G C150U U176G,0.0447
6,C82G A111U A145G C150U U176C,0.196
7,C82G A111U A145G C150U U176A,0.144
8,C82G A111U A145C C150G C169A U176G,0.00713
9,C82G A111U A145C C150G C169A U176C,0.00812
10,C82G A111U A145C C150G C169A U176A,0.00976
11,C82G A111U A120U A145G C150G U176C,0.00861
12,C82G A111U A120U A145G C150G U176G,0.00462
13,C82G A111U A120U A145G C150G U176A,0.00648
14,C82G A111U A120U A145U U176G,0.00425
15,C82G A111U A120U A145U U176C,0.0192
16,C82G A111U A120U A145U U176A,0.0108
17,C82G A111U A120U A145G C150U,0.0351
18,C82G A111U A145C C169A U176C,0.00791
19,C82G A111U A145C C169A U176G,0.00501
20,C82G A111U A145C C169A U176A,0.0121
21,C82G A111U A120U C169A U176A,0.00362

row,Variant,reverse-splicing fitness
1,C82G A111U A120U C169A U176C,0.00299
2,C82G A111U A120U C169A U176G,0.00169
3,C82G A111U A145U C150G C169G U176A,0.0083
4,C82G A111U A145U C150G C169G U176C,0.00646
5,C82G A111U A145U C150G C169G U176G,0.00649
6,C82G A111U A145C C150A C169U U176G,0.00599
7,C82G A111U A145C C150A C169U U176A,0.0163
8,C82G A111U A145C C150A C169U U176C,0.00987
9,C82G A111U A145G C150A U176C,0.0447
10,C82G A111U A145G C150A U176G,0.0141
11,C82G A111U A145G C150A U176A,0.0322
12,C82G A111U A145C C150A U176C,0.0187
13,C82G A111U A145C C150A U176A,0.0163
14,C82G A111U A145C C150A U176G,0.00844
15,C82G A111U A145G C150G C169A U176C,0.0129
16,C82G A111U A145G C150G C169A U176A,0.0133
17,C82G A111U A145G C150G C169A U176G,0.00877
18,C82G A111U A145C C150A C169U,0.0105
19,C82G A111U A145C C150A C169A,0.00868
20,C82G A111U A145C C150A C169G,0.00822
